{"source": "paper PMC12812394", "binders": {"B1": {"name": "OsAPx4-cLUC (enzyme)", "chain": "MAAPVVDAEYLRQVDRARRHLRALISSKGCAPIMLRLAWHDAGTYDVNTKTGGANGSIRYEEEYTHGSNAGLKIAIDLLEPIKAKSPKITYADLYQLAGVVAVEVTGGPTVEFIPGRRDSSVCPREGRLPDAKKGALHLRDIFYRMGLSDKDIVALSGGHTLGRAHPERSGFEGAWTQEPLKFDNSYFLELLKGESEGLLKLPTDKALLEDPSFRRYVDLYARDEDTFFKDYAESHKKLSELGFTPRSSGPASTKSDLSTGAVLAQSAVGVAVAAAVVIVSYLYEASKKSK"}}, "target": "Pi65-nLUC (rice (Oryza sativa ssp. japonica cv. GY129))", "experiment": "split reporter (BiFC, NanoBiT); NanoLuc luciferase complementation (nLUC/cLUC fusions, 35S promoter) in co-infiltrated Nicotiana benthamiana leaves, 48-72 h at 22 °C; whole-leaf luminescence with furimazine, 1-min exposure", "data": [{"binder": "B1", "values": [{"measurement": "luminescence, fold over the negative controls", "value": 12.3, "unit": "fold"}]}]}
